According to patent US20250144199A1 (UNIVERSITY OF MARYLAND COLLEGE PARK, published 2025):

Biological target: T1, tandem RBDs-Fc fusion protein (SARS-CoV-2 RBDs-Fc, FIG. 8C)
T1 construct: also called RBDs-IgG Fc; tandem RBD-Fc
Experiment: ELISA, biotinylated C1q on coated protein

B1: mouse C1q protein (Complement Technology Cat #M099), biotin-conjugated (other)
chain 1: EDVCRAPNGKDGAPGNPGRPGRPGLKGERGEPGAAGIRTGIRGFKGDPGESGPPGKPGNVGLPGPSGPLGDSGPQGLKGVKGNPGNIRDQPRPAFSAIRQNPMTLGNVVIFDKVLTNQESPYQNHTGRFICAVPGFYYFNFQVISKWDLCLFIKSSSGGQPRDSLSFSNTNNKGLFQVLAGGTVLQLRRGDEVWIEKDPAKGRIYQGTEADSIFSGFLIFPSA
chain 2: QSSCTGPPGIPGIPGVPGVPGSDGQPGTPGIKGEKGLPGLAGDLGEFGEKGDPGIPGTPGKVGPKGPVGPKGTPGPSGPRGPKGDSGDYGATQKVAFSALRTINSPLRPNQVIRFEKVITNANENYEPRNGKFTCKVPGLYYFTYHASSRGNLCVNLVRGRDRDSMQKVVTFCDYAQNTFQVTTGGVVLKLEQEEVVHLQATDKNSLLGIEGANSIFTGFLLFPDMDA
chain 3: SAGCYGIPGMPGMPGAPGKDGHDGLQGPKGEPGIPAVPGTRGPKGQKGEPGMPGHRGKNGPRGTSGLPGDPGPRGPPGEPGVEGRYKQKHQSVFTVTRQTTQYPEANALVRFNSVVTNPQGHYNPSTGKFTCEVPGLYYFVYYTSHTANLCVHLNLNLARVASFCDHMFNSKQVSSGGVLLRLQRGDEVWLSVNDYNGMVGIEGSNSVFSGFLLFPD
B1: no binding (tested: C1q 2 µg/ml; 800-7.8 ng/well coated).
